These results are taken from patent US20250051458A1, “Methods for Treating Neurodegeneration Targeting IGF1/IGF1R” (The Schepens Eye Research Institute, Inc., priority 2021, published 2025).

One experiment has as its system retinal microglia. As to the kind of experiment: Bulk RNA-seq gene profiling of isolated retinal microglial cultures, with or without LPS. The class given is cell-based, mouse. How it is done: We performed RNA-seq using four Igfbpl1−/− mice retina and four WT mice retina. The raw data was quality controlled and aligned on Mus musculus (mouse) reference genome (GRCm38) with STAR v2.5.0a (PMID: 23104886), FeatureCount (v0.6.1) (PMID: 24227677) was used to count the number of read mapped to each gene. Transcripts Per Million (TPM) was calculated for each gene based on the length of the gene and reads mapped to that gene. Differential expression analysis between Igfbpl1^−/− and WT mice was performed using the DESeq2 R package (v1.22.2) (PMID: 25516281). gene set over representation analysis for the differentially expressed genes was performed with the same above described method. We also downloaded lists of genes with function related to “Microglia”, “Astroglia”, “neuron”, and “photoreceptor” from genecard (www.genecards.org) with relevance score>5, and determined the percentage of and calculated the proportion of differentially expressed genes in each of those gene lists. […]
To investigate if IGFBPL1 directly mediates microglial function, we studied gene profiling changes in isolated microglial cultures treated by IGFBPL1. Retinal microglia were purified from mice expressing green fluorescence protein (GFP) driven under a microglial specific promoter Cx3cr1 (Cx3cr1-Gfp) using fluorescence-activated cell sorting (FACS)^12. […]

In the next experiment the test system is DBA/2J mice. As to the kind of experiment: DBA/2J chronic glaucoma mouse model, monthly intravitreal administration. Conditions: 10 m-old DBA/2J mice. The class given is in vivo. The procedure: Adult (10-12 weeks old) male and female C57BL/6J (B6) (The Jackson Laboratory, 000664), Cx3cr1^GFP (The Jackson Laboratory, 005582), DBA/2J mice (The Jackson Laboratory, 000671) Igf1r^(lax) inducible knockout mice (The Jackson Laboratory, 012251) as well as Cx3cr1^tm2.1(cre/ERT2) mice were obtained from the Jackson Laboratory. Igf1r^(lax) mice were crossed with Cx3cr1^tm2.1(cre/ERT2) mice to generated Igf-1r specific knock out on microglia after 3 consecutive days injection of 100 mg/kg tamoxifen to mice. IGFBPL1 deficiency mice at a C57BL/6J genetic background (Knockout Mouse Project Repository, University of California at Davis) were used in following experiments. Mice of both genders were randomized into control and experimental groups. All experimental procedures and use of animals were approved and monitored by the Institute's Animal Care Committee and conform to the standards of the National Institute of Health and the Association for Research in Vision and Ophthalmology.
Adult mice were anesthetized by i.p. injection of ketamine (120 mg/kg)/xylazine (20 mg/kg) mixture using 25 G needle. […] Mice will be placed on a warm pad and monitored every 15 minutes until awake and fully sternal.
The adult mice were dark adapted in a dark adaptation chamber overnight before conducting ERG. […] The pSTR was measured from the baseline to the peak of the positive deflection. […]

B1: IGFBPL1: insulin-like growth factor binding protein like protein 1; recombinant protein (R&D system, 4130-BL) (protein)
chain: LGLRDAGRRHPECSPCQQDRCPAPSPCPAPWISARDECGCCARCLGAEGASCGGPVGSRCGPGLVCASRASGTAPEGTGLCVCAQRGAVCGSDGRSYSSICALRLRARHAPRAHHGHLHKARDGPCEFAPVVLMPPRDIHNVTGTQVFLSCEVKAVPTPVITWKKVKHSPEGTEGLEELPGDHVNIAVQVRGGPSDHETTSWILINPLRKEDEGVYHCHAANAIGEAQSHGTVTVLDLNRYKSLYSSVPGDLL
For the molecule B1, the “Reversal of LPS-induced microglial gene profile (bulk RNA-seq)” value with retinal microglia (IGFBPL1 added 6 hr after LPS stimulation) is on record as “completely reverted LPS-induced microglial gene profile to the control level”. In addition, in the experiment with retinal microglia (IGFBPL1 alone, no LPS), the “Microglial gene profile versus vehicle controls (bulk RNA-seq)” value is “no different between cultures treated with IGFBPL1 alone and vehicle controls”. The “Survived axon in optic nerve” value with DBA/2J mice (versus vehicle-treated group) was “significantly preserved”. Moreover, the “RGC density and pSTR amplitude” value with DBA/2J mice (after four monthly doses) was “effectively protect RGCs and functions”.
